First the molecules themselves.
B1: E3 ubiquitin-protein ligase TRAIP (Homo sapiens), Q9BWF2 (parent)
chain: MPIRALCTICSDFFDHSRDVAAIHCGHTFHLQCLIQWFETAPSRTCPQCRIQVGKRTIINKLFFDLAQEEENVLDAEFLKNELDNVRAQLSQKDKEKRDSQVIIDTLRDTLEERNATVVSLQQALGKAEMLCSTLKKQMKYLEQQQDETKQAQEEARRLRSKMKTMEQIELLLQSQRPEVEEMIRDMGVGQSAVEQLAVYCVSLKKEYENLKEARKASGEVADKLRKDLFSSRSKLQTVYSELDQAKLELKSAQKDLQSADKEIMSLKKKLTMLQETLNLPPVASETVDRLVLESPAPVEVNLKLRRPSFRDDIDLNATFDVDTPPARPSSSQHGYYEKLCLEKSHSPIQDVPKKICKGPRKESQLSLGGQSCAGEPDEELVGAFPIFVRNAILGQKQPKRPRSESSCSKDVVRTGFDGLGGRTKFIQPTDTVMIRPLPVKPKTKVKQRVRVKTVPSLFQAKLDTFLWS
B2: Kinesin-associated protein 3 (Homo sapiens), Q92845 (parent)
chain: MQGEDARYLKRKVKGGNIDVHPSEKALIVHYEVEATILGEMGDPMLGERKECQKIIRLKSLNANTDITSLARKVVEECKLIHPSKLNEVEQLLYYLQNRRDSLSGKEKKEKSSKPKDPPPFEGMEIDEVANINDMDEYIELLYEDIPDKVRGSALILQLARNPDNLEELLLNETALGALARVLREDWKQSVELATNIIYIFFCFSSFSQFHGLITHYKIGALCMNIIDHELKRHELWQEELSKKKKAVDEDPENQTLRKDYEKTFKKYQGLVVKQEQLLRVALYLLLNLAEDTRTELKMRNKNIVHMLVKALDRDNFELLILVVSFLKKLSIFMENKNDMVEMDIVEKLVKMIPCEHEDLLNITLRLLLNLSFDTGLRNKMVQVGLLPKLTALLGNDNYKQIAMCVLYHISMDDRFKSMFAYTDCIPQLMKMLFECSDERIDLELISFCINLAANKRNVQLICEGNGLKMLMKRALKFKDPLLMKMIRNISQHDGPTKNLFIDYVGDLAAQISNDEEEEFVIECLGTLANLTIPDLDWELVLKEYKLVPYLKDKLKPGAAEDDLVLEVVIMIGTVSMDDSCAALLAKSGIIPALIELLNAQQEDDEFVCQIIYVFYQMVFHQATRDVIIKETQAPAYLIDLMHDKNNEIRKVCDNTLDIIAEYDEEWAKKIQSEKFRWHNSQWLEMVESRQMDESEQYLYGDDRIEPYIHEGDILERPDLFYNSDGLIASEGAISPDFFNDYHLQNGDVVGQHSFPGSLGMDGFGQPVGILGRPATAYGFRPDEPYYYGYGS
partner: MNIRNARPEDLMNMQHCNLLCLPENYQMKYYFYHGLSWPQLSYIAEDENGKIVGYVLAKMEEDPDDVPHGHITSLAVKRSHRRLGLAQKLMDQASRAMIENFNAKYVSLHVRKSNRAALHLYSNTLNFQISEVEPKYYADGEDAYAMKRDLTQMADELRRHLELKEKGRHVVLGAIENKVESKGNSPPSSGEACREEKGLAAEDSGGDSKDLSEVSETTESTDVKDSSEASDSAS
B3: Beta-taxilin (Homo sapiens), Q8N3L3 (parent)
chain: MEANHSEQLSAERQSTPPGDSSSLPSHNGLEKEDGQDSPTPVQPPEKEASVHPDISEELNRQLEDIINTYGSAASTAGKEGSARASEQPENAESPDNEDGDCEETTEEAGREPVASGEPPTVKEPVSNKEQKLEKKILKGLGKEANLLMQNLNKLQTPEEKFDFLFKKYAELLDEHRTEQKKLKLLQKKQVQIQKEKDQLQGEHSRAILARSKLESLCRELQRHNKTLKEEALQRAREEEEKRKEITSHFQSTLTDIQGQIEQQSERNMKLCQENTELAEKLKSIIDQYELREEHLDKIFKHRELQQKLVDAKLEQAQEMMKEAEERHKREKEYLLNQAAEWKLQAKVLKEQETVLQAQLTLYSGRFEEFQSTLTKSNEVFATFKQEMDKTTKKMKKLEKDTATWKARFENCNKALLDMIEEKALRAKEYECFVMKIGRLENLCRALQEERNELHKKIRDAEISEKDDQSQHNSDEEPESNVSVDQEIDAEEVNSVQTAVKNLATAFMIIHHPESTPHQSKETQPEIGSSQESADAALKEPEQPPLIPSRDSESPLPPLTPQAEAEGGSDAEPPSKASNSPAGLGAETQCEGLPVGAQADQASWKPEAEASGQAPQAPTEASLQKMEADVPAPACAAEEHVAAMVPACEPSRQPPRAAAEELPVGASAGPQPRNVADTNLEGVD
partner: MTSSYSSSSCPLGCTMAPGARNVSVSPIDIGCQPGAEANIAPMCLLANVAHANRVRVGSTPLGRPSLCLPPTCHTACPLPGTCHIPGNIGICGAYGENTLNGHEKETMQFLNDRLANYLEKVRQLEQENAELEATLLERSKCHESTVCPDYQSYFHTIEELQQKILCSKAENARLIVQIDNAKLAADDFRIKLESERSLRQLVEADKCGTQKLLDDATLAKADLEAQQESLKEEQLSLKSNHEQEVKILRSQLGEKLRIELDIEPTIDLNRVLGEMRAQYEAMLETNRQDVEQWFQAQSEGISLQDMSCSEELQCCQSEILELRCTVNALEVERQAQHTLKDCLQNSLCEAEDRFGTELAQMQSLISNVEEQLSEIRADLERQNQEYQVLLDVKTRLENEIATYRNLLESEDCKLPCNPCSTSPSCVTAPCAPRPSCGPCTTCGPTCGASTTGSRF
B4: TBC1 domain family member 5 (Homo sapiens), Q92609 (parent)
chain: MYHSLSETRHPLQPEEQEVGIDPLSSYSNKSGGDSNKNGRRTSSTLDSEGTFNSYRKEWEELFVNNNYLATIRQKGINGQLRSSRFRSICWKLFLCVLPQDKSQWISRIEELRAWYSNIKEIHITNPRKVVGQQDLMINNPLSQDEGSLWNKFFQDKELRSMIEQDVKRTFPEMQFFQQENVRKILTDVLFCYARENEQLLYKQGMHELLAPIVFVLHCDHQAFLHASESAQPSEEMKTVLNPEYLEHDAYAVFSQLMETAEPWFSTFEHDGQKGKETLMTPIPFARPQDLGPTIAIVTKVNQIQDHLLKKHDIELYMHLNRLEIAPQIYGLRWVRLLFGREFPLQDLLVVWDALFADGLSLGLVDYIFVAMLLYIRDALISSNYQTCLGLLMHYPFIGDVHSLILKALFLRDPKRNPRPVTYQFHPNLDYYKARGADLMNKSRTNAKGAPLNINKVSNSLINFGRKLISPAMAPGSAGGPVPGGNSSSSSSVVIPTRTSAEAPSHHLQQQQQQQRLMKSESMPVQLNKGLSSKNISSSPSVESLPGGREFTGSPPSSATKKDSFFSNISRSRSHSKTMGRKESEEELEAQISFLQGQLNDLDAMCKYCAKVMDTHLVNIQDVILQENLEKEDQILVSLAGLKQIKDILKGSLRFNQSQLEAEENEQITIADNHYCSSGQGQGRGQGQSVQMSGAIKQASSETPGCTDRGNSDDFILISKDDDGSSARGSFSGQAQPLRTLRSTSGKSQAPVCSPLVFSDPLMGPASASSSNPSSSPDDDSSKDSGFTIVSPLDI
B5: "Guanine nucleotide-binding protein G(T) subunit gamma-T1" (Homo sapiens), P63211 (parent)
chain: MPVINIEDLTEKDKLKMEVDQLKKEVTLERMLVSKCCEEVRDYVEERSGEDPLVKGIPEDKNPFKELKGGCVIS
partner: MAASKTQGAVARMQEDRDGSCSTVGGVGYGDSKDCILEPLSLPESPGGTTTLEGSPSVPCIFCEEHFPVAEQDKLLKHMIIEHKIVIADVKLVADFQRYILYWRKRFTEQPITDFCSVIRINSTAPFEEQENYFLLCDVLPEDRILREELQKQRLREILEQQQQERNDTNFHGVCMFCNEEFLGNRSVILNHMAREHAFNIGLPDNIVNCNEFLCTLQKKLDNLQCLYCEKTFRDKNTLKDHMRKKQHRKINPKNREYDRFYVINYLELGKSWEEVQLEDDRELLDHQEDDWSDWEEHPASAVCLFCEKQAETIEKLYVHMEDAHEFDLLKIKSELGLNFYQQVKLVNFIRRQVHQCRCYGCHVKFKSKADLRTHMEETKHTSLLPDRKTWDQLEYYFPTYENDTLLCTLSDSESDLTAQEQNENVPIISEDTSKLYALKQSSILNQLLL

The variants in one experiment derive from B1. Conditions: with mare2_human MAPRE2, Q15555.
mare2_human MAPRE2, Q15555, sequence (Q15555 whole entry): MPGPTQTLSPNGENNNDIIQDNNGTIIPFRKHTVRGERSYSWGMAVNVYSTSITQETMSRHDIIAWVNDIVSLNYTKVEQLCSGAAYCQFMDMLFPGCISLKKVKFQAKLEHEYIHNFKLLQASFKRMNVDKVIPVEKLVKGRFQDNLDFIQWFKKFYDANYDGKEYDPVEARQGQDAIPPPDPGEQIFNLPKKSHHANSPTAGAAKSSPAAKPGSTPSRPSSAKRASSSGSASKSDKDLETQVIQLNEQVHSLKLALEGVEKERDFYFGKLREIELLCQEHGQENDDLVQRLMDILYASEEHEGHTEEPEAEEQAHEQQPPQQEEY
Consider Q428H, for which the “effect of a mutation on the interaction” value is listed as “with no effect”.

Variants of B2 are the subject of another experiment. Conditions: with naa10_human NAA10, P41227.
E167K: the “effect of a mutation on the interaction” value is recorded as “with no effect”.

For the variant F434C, the “effect of a mutation on the interaction” value is listed as “with no effect”.

The variants in the next experiment derive from B3. Conditions: with krt38_human KRT38, O76015.
For I527T, the “effect of a mutation on the interaction” value is “with no effect”.

The next experiment covers variants of B4. Conditions: with ap2m1_human AP2M1, Q96CW1.
ap2m1_human AP2M1, Q96CW1, sequence (Q96CW1 whole entry): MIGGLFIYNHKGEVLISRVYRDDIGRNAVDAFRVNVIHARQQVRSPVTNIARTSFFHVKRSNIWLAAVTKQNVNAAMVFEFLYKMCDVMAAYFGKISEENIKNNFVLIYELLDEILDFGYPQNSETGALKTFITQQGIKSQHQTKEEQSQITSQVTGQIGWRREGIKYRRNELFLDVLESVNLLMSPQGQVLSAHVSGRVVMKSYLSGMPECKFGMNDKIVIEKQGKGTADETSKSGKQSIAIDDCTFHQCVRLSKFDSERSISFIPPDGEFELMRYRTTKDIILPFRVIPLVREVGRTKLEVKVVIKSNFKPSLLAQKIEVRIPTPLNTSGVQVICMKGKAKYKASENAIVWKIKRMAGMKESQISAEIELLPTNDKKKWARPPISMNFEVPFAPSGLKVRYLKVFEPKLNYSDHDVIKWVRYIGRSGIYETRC
With Y375C, the “effect of a mutation on the interaction” value is given as “with no effect”.

Another experiment covers variants of B5. Conditions: with zn277_human ZNF277, Q9NRM2.
For E50K, the “effect of a mutation on the interaction” value is “with no effect”.

Source of the values: IntAct's records for PubMed 31515488.
